For experiment [1], the target named is T1, human GPC1 on the surface of GPC1-positive cancer cells (TE8, TE14, BxPC-3) (human, UniProt P35052 24-530).
T1 sequence: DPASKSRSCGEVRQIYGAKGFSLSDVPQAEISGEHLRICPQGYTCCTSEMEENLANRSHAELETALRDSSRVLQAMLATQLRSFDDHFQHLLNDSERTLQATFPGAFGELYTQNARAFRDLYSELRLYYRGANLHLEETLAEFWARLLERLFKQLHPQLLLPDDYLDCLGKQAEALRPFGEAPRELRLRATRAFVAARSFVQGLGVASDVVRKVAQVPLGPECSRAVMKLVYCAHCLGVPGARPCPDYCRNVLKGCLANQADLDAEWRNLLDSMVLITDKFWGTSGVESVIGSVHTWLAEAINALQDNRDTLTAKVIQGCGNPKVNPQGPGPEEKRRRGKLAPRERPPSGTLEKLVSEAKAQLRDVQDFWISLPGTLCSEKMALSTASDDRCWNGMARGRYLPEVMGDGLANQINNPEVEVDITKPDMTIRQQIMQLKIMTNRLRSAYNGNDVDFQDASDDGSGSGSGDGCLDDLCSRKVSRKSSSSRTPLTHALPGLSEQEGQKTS
Kind of experiment: cell-based or functional assay.

Experiment [2] deals with T1, human GPC1 on the surface of …. In words: flow cytometry on TE8 cells, antibody titration, FITC anti-human IgG as secondary antibody. As to the method: The measurement was performed with FACS CantoII (BD) using the human/mouse chimeric anti-GPC1 antibody (clone 01a033) and the humanized anti-GPC1 antibody (clone T2) as primary antibodies at various concentrations and FITC labeled anti-human-IgG-FITC (Jackson Immuno Research, Catalog No. 109-095-098) as a secondary antibody, and the measurement data were analyzed using BD FACS Diva Software (BD).
In general terms: Flow cytometry measures light scatter and fluorescence of single cells or particles in a stream.

Experiment [3] has as its target T2, recombinant human GPC1 protein (R&D Systems) (human, UniProt P35052 24-530).
T2 construct: Bought recombinant protein (R&D Systems); also called human GPC-1 antigen; Glypican-1
T2 sequence: T1 sequence
Kind of experiment: SPR (Biacore 8K); antibody captured by anti-human IgG (Fc) on a CM5 chip, recombinant human GPC1 flowed over. As to the method:
The mouse anti-human-GPC1 monoclonal antibody was humanized (subclass: IgG4), and the obtained twenty clones (T1, T2, T3, T7, T8, T10, T11, T22, T26, T28, T29, T31, T32, T33, T34, T36, T43, T56, T57, T59) were prepared. An anti-human IgG (Fc) was immobilized on an sCM5 sensor chip (GE Healthcare) using Human antibody capture kit (GE Healthcare), and the affinity of each of these clones to a recombinant human GPC1 protein (R&D Systems) was measured using Biacore (registered trademark) 8K (GE Healthcare).
In general terms: SPR reads the build-up and loss of mass on a sensor chip optically.

Experiment [4] has as its target T2, recombinant human GPC1 protein (R&D …). Kind of experiment: SPR (Biacore 8K); antibody captured by anti-mouse-Fc antibody on the chip, human GPC-1 flowed over. The procedure: The binding affinity of the mouse antibody to human GPC-1 was measured through surface plasmon resonance technique (Biacore (registered trademark) 8K). An anti-mouse-Fc antibody was immobilized on a chip, and the mouse antibody (01a033) was flowed thereon and allowed to bind thereto. After washing, the human GPC-1 was flowed thereon, and the binding constant (Ka) and the dissociation constant (Kd) were measured.

Experiment [5] deals with T3, MC38-mGPC1.
T3 construct: also called mGPC1-MC38; mouse GPC1 stably expressed on the mouse colorectal cancer cell line MC38
T3 mouse Glypican-1: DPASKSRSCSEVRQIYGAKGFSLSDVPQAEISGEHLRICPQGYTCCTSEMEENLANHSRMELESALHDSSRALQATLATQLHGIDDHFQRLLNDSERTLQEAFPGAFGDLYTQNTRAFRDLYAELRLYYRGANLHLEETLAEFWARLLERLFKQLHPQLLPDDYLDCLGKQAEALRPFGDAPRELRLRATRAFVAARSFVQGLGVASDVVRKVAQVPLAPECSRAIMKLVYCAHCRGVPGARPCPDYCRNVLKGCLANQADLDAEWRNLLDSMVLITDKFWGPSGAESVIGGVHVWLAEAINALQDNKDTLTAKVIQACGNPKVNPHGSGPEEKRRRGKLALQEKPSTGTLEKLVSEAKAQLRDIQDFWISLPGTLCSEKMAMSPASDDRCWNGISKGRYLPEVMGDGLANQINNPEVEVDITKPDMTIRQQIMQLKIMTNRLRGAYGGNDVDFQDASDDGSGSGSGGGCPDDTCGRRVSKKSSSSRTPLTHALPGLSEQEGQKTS
Kind of experiment: flow cytometry on MC38-mGPC1 cells (the sheet names clone 01a033 and mIgG2a; paragraph 327 names clone T2 with FITC anti-human IgG).

The target of experiment [6] is T1, human GPC1 on the surface of …. Kind of experiment: flow cytometry on BxPC3 cells, antibody titration, FITC anti-human IgG as secondary antibody. The procedure:
In the FACS analysis using the antibody, cells of human pancreatic cancer cell line (BxPC-3) were used as GPC1-positive cells. The measurement was performed with FACS CantoII (BD) using the humanized anti-GPC1 antibody (clone T2) and the humanized GPC1-ADC (MMAE) as primary antibodies at various concentrations and FITC labeled anti-human-IgG-FITC (Jackson Immuno Research, Catalog No. 109-095-098) as a secondary antibody, and the measurement data were analyzed using BD FACS Diva Software (BD).
The influence of conjugation of a payload with the humanized anti-GPC1 antibody (T2) on the antigen affinity was evaluated by analyzing the antibody concentration-dependent binding ability with FACS using GPC1 expression-positive BxPC3 cells.

Experiment [7] has the same target. In words: cell-based or functional assay. This is another data set of the same source.
For experiment [8] the target is unchanged. In words: cell-based or functional assay. This is another data set of the same source.
The target of experiment [9] is T3, MC38-mGPC1. In words: cell-based or functional assay.

B1: human/mouse chimeric anti-GPC1 antibody (clone 01a033) (antibody, human IgG4 S228P, kappa, V domains shown)
VH: QVQLKQSGPELVKPGASVKISCKASGYSFTGYYMHWVKQSPEKSLEWIGEINPSTGDTTYNQKFKAKATLTVDKSSSTAYMQLKSLTSEDSAVYYCAREKRDDGVFAYWGQGTLVTVSS
VL: DIVMSQSPKSMSMSVGERVALSCKASENVGTYVSWYQQKPEQSPKLLIYGASNRYTGVPDRFTGSGSATDFTLTISSVQAEDLADYYCGQSYSYPLTFGAGTKLELKR
notes: also called chimeric mouse antibody (01a033); anti-GPC-1 chimeric antibody (01a033)
The term Kd denotes a measure of binding affinity in units of concentration. As usually defined, the koff is the rate constant with which the complex falls apart. Broadly, the kon is a measure of how fast the partners come together. Turning to B1, the “IC50 of cytotoxicity on TE14 cells (ATP cell viability, 144 h) with MMAF-linked anti-human-IgG Fab as secondary antibody” value (from here on “IC50 of cytotoxicity on TE14 cells”) in experiment [1] came out at 0.071 nM. In experiment [2], the Kd worked out at 2.38 nM. In experiment [3], the Kd amounted to 10.2 nM, the koff stood at 0.00309 s⁻¹ and the on-rate constant (kon) was determined as 302000 M⁻¹ s⁻¹.

B2: anti-GPC-1 mouse monoclonal antibody 01a033 (antibody, V domains shown)
VH: B1 VH
VL: DIVMSQSPKSMSMSVGERVALSCKASENVGTYVSWYQQKPEQSPKLLIYGASNRYTGVPDRFTGSGSATDFTLTISSVQAEDLADYYCGQSYSYPLTFGAGTKLELK
notes: Mouse monoclonal antibody; also called mouse antibody (01a033); mouse anti-GPC1 antibody (clone 01a033)
Take B2: in experiment [4], the Kd turned out to be 31.6 nM, the koff stood at 0.00388 s⁻¹ and the kon was found to be 123000 M⁻¹ s⁻¹. The binding result in experiment [5] is given as “binds”.

B3: humanized anti-GPC1 antibody (clone T2) (antibody, human IgG4 S228P, kappa, V domains shown)
VH: QVQLVQSGAEVKKPGASVKVSCKASGYTFTGYYMHWVRQAPGQGLEWMGEINPSTGDTTYNQKFKARVTMTRDTSTSTVYMELSSLRSEDTAVYYCAREKRDDGVFAYWGQGTLVTVSS
VL: DIVMTQSPSFLSASVGDRVTITCRASQGISSYLVWYQQKPGKPPKLLIYSASVLQSGVPSRFSGRGYGTDFTLTISSLQPEDFATYYCQQSFSIPPVTFGGGTKVEIKR
notes: IgG; also called humanized anti-GPC1 antibody (T2); unlabeled antibody
For B3, the “IC50 of cytotoxicity on TE14 cells” value in experiment [1] was found to be 0.0361 nM. For the same molecule, the affinity in experiment [2], expressed as Kd, was 1.89 nM. This molecule had a Kd in experiment [6] of 0.529 nM. Also, in experiment [3], the Kd was found to be 5.2 nM, the koff is 0.00125 s⁻¹ and the kon is 240000 M⁻¹ s⁻¹.

B4: humanized anti-GPC1 monoclonal antibody clone T56 (antibody, human IgG4 S228P, kappa, V domains shown)
VH: B3 VH
VL: DIVMTQSPSTLSASVGDRVTIICRASQSIGPWLAWYQQKSGKAPKLLIYGASNLQSGVPSRFSGSGYGTDFTLTISSLQPEDFATYYCQQTSSAPFTFGPGTKVDIKR
notes: IgG
Consider B4, for which the “IC50 of cytotoxicity on TE14 cells” value in experiment [1] was determined as 0.0501 nM. In [3], the Kd was found to be 6.93 nM, the koff is 0.0018 s⁻¹ and the kon was determined as 259000 M⁻¹ s⁻¹.

B5: humanized GPC1-ADC (MMAE) (antibody, V domains shown)
VH: B3 VH
VL: B3 VL
modifications: MC-vc-PAB-MMAE linked by maleimide to cysteines of the reduced interchain disulfide bonds; DAR 4.0 for the whole antibody
notes: also called humanized anti-GPC1-ADC; humanized anti-GPC1-ADC (MMAE)
Turning to B5, in experiment [7], the “IC50 of growth inhibition of Detroit562 cells (in-vitro ADC assay, CellTiter-Glo, 144 h)” value is 0.724 nM; the “IC50 of growth inhibition of FaDu cells (in-vitro ADC assay, CellTiter-Glo, 144 h)” value is 0.3 nM; the “IC50 of growth inhibition of HeLa cells (in-vitro ADC assay, CellTiter-Glo, 144 h)” value is 0.259 nM. In experiment [8], the “IC50 of growth inhibition of Ho-1-u-1 cells (in-vitro ADC assay, CellTiter-Glo, 144 h)” value was 0.329 nM and the “IC50 of growth inhibition of KON cells (in-vitro ADC assay, CellTiter-Glo, 144 h)” value is 0.153 nM. In addition, in experiment [9], the “IC50 of growth inhibition of MC38-mGPC1 cells (in-vitro ADC assay)” value is 2.29 nM. Moreover, in experiment [6], the Kd turned out to be 0.57 nM.

B6: humanized anti-GPC1 monoclonal antibody clone T36 (antibody, human IgG4 S228P, kappa, V domains shown)
VH: B3 VH
VL: NIQMTQSPSSLSASVGDRVTITCQASQDISNYLNWYQQRPGKAPQLLIYGASNLERGVPSRFSGSGFGTDFTLTISSVQPEDFATYYCQQAKSYPLTFGGGTKVEIKR
notes: IgG
With B6, the “IC50 of cytotoxicity on TE14 cells” value in [1] worked out at 0.0459 nM. In experiment [3], the Kd was determined as 9.8 nM, the koff turned out to be 0.00227 s⁻¹ and the kon stood at 231000 M⁻¹ s⁻¹.

B7: humanized anti-GPC1 monoclonal antibody clone T8 (antibody, human IgG4 S228P, kappa, V domains shown)
VH: B3 VH
VL: EIVMTQSPSSVSASVGDRVTITCRTSQSISSYLNWYQLRPGRAPKLLIYAASNLQSGVPSRFSGSGFGTDFTLTISSVQPEDFATYYCQQAKSYPLTFGGGTKVDIKR
notes: IgG
B7: in experiment [1], the “IC50 of cytotoxicity on TE14 cells” value was found to be 0.0379 nM. In addition, in experiment [3], the equilibrium dissociation constant (Kd) is 5.07 nM, the koff was 0.00118 s⁻¹ and the kon came to 234000 M⁻¹ s⁻¹.

B8: humanized anti-GPC1 monoclonal antibody clone T57 (antibody, human IgG4 S228P, kappa, V domains shown)
VH: B3 VH
VL: EIVMTQSPSSLSASVGDRVTISCRTSQTIRHYLNWYQQKPGKAPKLLIYDASNLKTGVPSRFSGSGSGTSFTLTISSLQPDDFATYYCQQSYSTPRTFGQGTKVEIKR
notes: IgG
Consider B8, for which the “IC50 of cytotoxicity on TE14 cells” value in experiment [1] came to 0.0459 nM. In [3], the Kd stood at 102 nM, the off-rate constant (koff) was 0.0135 s⁻¹ and the kon was found to be 132000 M⁻¹ s⁻¹.

The values above are taken from patent US20230250188A1 (NATIONAL UNIVERSITY CORPORATION KOCHI UNIVERSITY, published 2023).
